This passage reports enrichment and ratio to parent results from paper PMC5740061 (Nature Communications, 2017).

The chains are these.
B1: SDGF-TB1G1 (TB1G1 displayed on 293F cells) [designed binder] / Biotinylated His-Avi-TEAD1(194–411) [modified: biotin (BirA-500 kit); biotin (BirA-500 kit)] [not stated] (parent complex)
chain 1: PDEYIERAKECCKKGDIQCCLRYFEESGDPNVMLICLFCP
chain 2: RSIGTTKLRLVEFSAFLEQQRDPDSYNKHLFVHIGHANHSYSDPLLESVDIRQIYDKFPEKKGGLKELFGKGPQNAFFLVKFWADLNCNIQDDAGAFYGVTSQYESSENMTVTCSTKVCSFGKQVVEKVETEYARFENGRFVYRINRSPMCEYMINFIHKLKHLPEKYMMNSVLENFTILLVVTNRDTQETLLCMACVFEVSNSEHGAQHHIYRLVKD

In the first experiment the parent is B1. Nature of the experiment: mammalian (293F) surface display of a site-saturation mutagenesis library (every non-Cys single substitution), FACS sorting on biotinylated TEAD1 YBD, two sorting rounds, Illumina sequencing with perfect-match mapping; 20 nM biotinylated TEAD, monovalent 2-step stain (TEAD alone 30 min at 4 °C, dilute, pellet, then 20 nM streptavidin-Alexa Fluor 647), flow sorting on a BD Aria.
With chain 1 PDEIIERAKECCKKGDIQCCLRYFEESGDPNVMLICLFCP, the enrichment is -0.405 log2 (fold change of variant abundance after two TEAD sorts vs input, normalised to TB1G1). The same measure, in the same setting: the figure for chain 1 PDEHIERAKECCKKGDIQCCLRYFEESGDPNVMLICLFCP is -1.9 log2 (fold change of variant abundance after two TEAD sorts vs input, normalised to TB1G1). The same measure, in the same setting: with chain 1 PDEEIERAKECCKKGDIQCCLRYFEESGDPNVMLICLFCP the figure was -6.52 log2 (fold change of variant abundance after two TEAD sorts vs input, normalised to TB1G1); with chain 1 PDEYMERAKECCKKGDIQCCLRYFEESGDPNVMLICLFCP, -1.87 log2 (fold change of variant abundance after two TEAD sorts vs input, normalised to TB1G1). Take chain 1 PDEYNERAKECCKKGDIQCCLRYFEESGDPNVMLICLFCP: the enrichment was -1.34 log2 (fold change of variant abundance after two TEAD sorts vs input, normalised to TB1G1). chain 1 PDEYFERAKECCKKGDIQCCLRYFEESGDPNVMLICLFCP: the enrichment is -8.36 log2 (fold change of variant abundance after two TEAD sorts vs input, normalised to TB1G1). As to chain 1 PDEYIERAFECCKKGDIQCCLRYFEESGDPNVMLICLFCP, the enrichment was -3.52 log2 (fold change of variant abundance after two TEAD sorts vs input, normalised to TB1G1). Same read-out and setting: with chain 1 PDEYIERANECCKKGDIQCCLRYFEESGDPNVMLICLFCP the figure was 3.31 log2 (fold change of variant abundance after two TEAD sorts vs input, normalised to TB1G1). On the same count and under the same terms, with chain 1 PDEYIERAVECCKKGDIQCCLRYFEESGDPNVMLICLFCP the figure was -8.88 log2 (fold change of variant abundance after two TEAD sorts vs input, normalised to TB1G1); with chain 1 PDEYIERARECCKKGDIQCCLRYFEESGDPNVMLICLFCP, -1.3 log2 (fold change of variant abundance after two TEAD sorts vs input, normalised to TB1G1); with chain 1 PDEYIERAWECCKKGDIQCCLRYFEESGDPNVMLICLFCP, -4.41 log2 (fold change of variant abundance after two TEAD sorts vs input, normalised to TB1G1).

As for chain 1 PDEYIERAQECCKKGDIQCCLRYFEESGDPNVMLICLFCP, the enrichment is 1.1 log2 (fold change of variant abundance after two TEAD sorts vs input, normalised to TB1G1). On the same count and under the same terms, with chain 1 PEEYIERAKECCKKGDIQCCLRYFEESGDPNVMLICLFCP the figure was 1.16 log2 (fold change of variant abundance after two TEAD sorts vs input, normalised to TB1G1); with chain 1 PLEYIERAKECCKKGDIQCCLRYFEESGDPNVMLICLFCP, -3.53 log2 (fold change of variant abundance after two TEAD sorts vs input, normalised to TB1G1); with chain 1 PVEYIERAKECCKKGDIQCCLRYFEESGDPNVMLICLFCP, -2.34 log2 (fold change of variant abundance after two TEAD sorts vs input, normalised to TB1G1). On the same count and under the same terms, with chain 1 PQEYIERAKECCKKGDIQCCLRYFEESGDPNVMLICLFCP the figure was -0.201 log2 (fold change of variant abundance after two TEAD sorts vs input, normalised to TB1G1); with chain 1 PPEYIERAKECCKKGDIQCCLRYFEESGDPNVMLICLFCP, -2.11 log2 (fold change of variant abundance after two TEAD sorts vs input, normalised to TB1G1).

On to chain 1 PSEYIERAKECCKKGDIQCCLRYFEESGDPNVMLICLFCP, for which the enrichment is -1.01 log2 (fold change of variant abundance after two TEAD sorts vs input, normalised to TB1G1). Take chain 1 PDEYIEQAKECCKKGDIQCCLRYFEESGDPNVMLICLFCP: the enrichment is -0.484 log2 (fold change of variant abundance after two TEAD sorts vs input, normalised to TB1G1). Still for that read-out and setting: with chain 1 PDEYIEPAKECCKKGDIQCCLRYFEESGDPNVMLICLFCP the figure was -2.49 log2 (fold change of variant abundance after two TEAD sorts vs input, normalised to TB1G1); with chain 1 PDEYIEVAKECCKKGDIQCCLRYFEESGDPNVMLICLFCP, -2.31 log2 (fold change of variant abundance after two TEAD sorts vs input, normalised to TB1G1); with chain 1 PDEYIEYAKECCKKGDIQCCLRYFEESGDPNVMLICLFCP, -1.01 log2 (fold change of variant abundance after two TEAD sorts vs input, normalised to TB1G1).

In the case of chain 1 PDEYIEHAKECCKKGDIQCCLRYFEESGDPNVMLICLFCP, the enrichment is -0.322 log2 (fold change of variant abundance after two TEAD sorts vs input, normalised to TB1G1). Consider chain 1 PDEYIEKAKECCKKGDIQCCLRYFEESGDPNVMLICLFCP, for which the enrichment is 0.473 log2 (fold change of variant abundance after two TEAD sorts vs input, normalised to TB1G1).

With chain 1 PDEYIEDAKECCKKGDIQCCLRYFEESGDPNVMLICLFCP, the enrichment is -2.25 log2 (fold change of variant abundance after two TEAD sorts vs input, normalised to TB1G1).

On to chain 1 PDEYIERGKECCKKGDIQCCLRYFEESGDPNVMLICLFCP, for which the enrichment is -4.11 log2 (fold change of variant abundance after two TEAD sorts vs input, normalised to TB1G1). On the same count and under the same terms, the figure for chain 1 PDEYIERQKECCKKGDIQCCLRYFEESGDPNVMLICLFCP is -6 log2 (fold change of variant abundance after two TEAD sorts vs input, normalised to TB1G1); for chain 1 PDEYIERAKECCKKGDIQCCLRYFEESGDPNVILICLFCP it is -3.16 log2 (fold change of variant abundance after two TEAD sorts vs input, normalised to TB1G1). As for chain 1 EDEYIERAKECCKKGDIQCCLRYFEESGDPNVMLICLFCP, the enrichment was 1.12 log2 (fold change of variant abundance after two TEAD sorts vs input, normalised to TB1G1). Same read-out and setting: the figure for chain 1 FDEYIERAKECCKKGDIQCCLRYFEESGDPNVMLICLFCP is -1.3 log2 (fold change of variant abundance after two TEAD sorts vs input, normalised to TB1G1). For chain 1 PDEYISRAKECCKKGDIQCCLRYFEESGDPNVMLICLFCP, the enrichment was -1.09 log2 (fold change of variant abundance after two TEAD sorts vs input, normalised to TB1G1). Same read-out and setting: with chain 1 PDEYITRAKECCKKGDIQCCLRYFEESGDPNVMLICLFCP the figure was -0.921 log2 (fold change of variant abundance after two TEAD sorts vs input, normalised to TB1G1). On the same count and under the same terms, with chain 1 PDGYIERAKECCKKGDIQCCLRYFEESGDPNVMLICLFCP the figure was -0.623 log2 (fold change of variant abundance after two TEAD sorts vs input, normalised to TB1G1). On the same count and under the same terms, with chain 1 PDVYIERAKECCKKGDIQCCLRYFEESGDPNVMLICLFCP the figure was -1.39 log2 (fold change of variant abundance after two TEAD sorts vs input, normalised to TB1G1); with chain 1 PDDYIERAKECCKKGDIQCCLRYFEESGDPNVMLICLFCP, 0.801 log2 (fold change of variant abundance after two TEAD sorts vs input, normalised to TB1G1); with chain 1 PDRYIERAKECCKKGDIQCCLRYFEESGDPNVMLICLFCP, -1.81 log2 (fold change of variant abundance after two TEAD sorts vs input, normalised to TB1G1). Regarding chain 1 PDHYIERAKECCKKGDIQCCLRYFEESGDPNVMLICLFCP, the enrichment was -0.307 log2 (fold change of variant abundance after two TEAD sorts vs input, normalised to TB1G1).

Variants of B1 are the subject of another experiment.
Assay: not given
For the variant chain 1 PDEYIERAKESSKKGDIQSSLRYFEESGDPNVMLISLFSP, the ratio to parent was approximately 0.01. Take chain 1 M33A: the ratio to parent was approximately 0.01. Still for that read-out and setting: the figure for chain 1 E25A is approximately 0.07.
